Source: US20170247475A1 (Boehringer Ingelheim, published 2017)
Like-named read-outs stand apart in the source and are kept apart here.

T1: human PIGF (human, UniProt P49763-2 21-149, limits assumed)
T1 construct: also called hPIGF; PLGF
T1 sequence (looked up): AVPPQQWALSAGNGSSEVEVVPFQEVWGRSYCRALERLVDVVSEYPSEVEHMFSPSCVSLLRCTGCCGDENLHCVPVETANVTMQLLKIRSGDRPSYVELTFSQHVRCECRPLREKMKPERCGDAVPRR

T2: human VEGF-B (human, UniProt P49765-2 22-188, limits assumed)
T2 construct: also called hVEGF-B
T2 sequence (looked up): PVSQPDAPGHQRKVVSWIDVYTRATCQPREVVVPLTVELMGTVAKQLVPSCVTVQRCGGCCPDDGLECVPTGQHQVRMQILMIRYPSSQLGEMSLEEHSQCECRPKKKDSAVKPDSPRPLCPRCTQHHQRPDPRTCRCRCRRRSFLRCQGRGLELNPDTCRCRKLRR

T3: human VEGF-C (human, UniProt P49767 103-227)
T3 construct: also called hVEGF-C
T3 sequence (looked up): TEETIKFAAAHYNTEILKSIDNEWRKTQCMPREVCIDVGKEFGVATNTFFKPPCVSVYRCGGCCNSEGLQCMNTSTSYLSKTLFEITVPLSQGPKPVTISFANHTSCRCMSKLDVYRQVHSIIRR

T4: human VEGF-D (human, UniProt O43915 93-201)
T4 construct: also called hVEGF-D
T4 sequence (looked up): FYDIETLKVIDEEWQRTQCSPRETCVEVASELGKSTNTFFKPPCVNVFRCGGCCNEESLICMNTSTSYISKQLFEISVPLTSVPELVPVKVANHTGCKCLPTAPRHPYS

T5: recombinant human VEGF121 (human, UniProt P15692-9 27-147)
T5 construct: also called rhVEGF121; hVEGF121
T5 sequence (looked up): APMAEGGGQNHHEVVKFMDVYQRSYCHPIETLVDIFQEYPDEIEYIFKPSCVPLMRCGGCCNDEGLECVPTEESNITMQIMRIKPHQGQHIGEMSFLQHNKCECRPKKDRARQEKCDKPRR


Legend:
human PIGF = biological target: T1, human PIGF; assay: solid phase binding ELISA
Protocol: (§1) Binding to VEGFB, VEGFC, VEGFD and PIGF is assessed via a solid phase binding ELISA. In brief, VEGFB, VEGFC, VEGFD and PIGF (R&D Systems, Minneapolis, Minn., USA) are coated overnight at 4° C. at 1 μg/mL in a 96-well MaxiSorp plate (Nunc, Wiesbaden, Germany). Wells are blocked with a casein solution (1% in PBS). […] As positive controls serial dilutions of the appropriate receptors are taken along and detected with horseradish peroxidase (HRP)-conjugated goat anti-human IgG, Fc specific antibody (Jackson Immuno Research Laboratories Inc., West Grove, Pa., USA) and a subsequent enzymatic reaction in the presence of the substrate TMB (3,3′,5,5′-tetramentylbenzidine) (Pierce, Rockford, Ill., USA).

human VEGF-B = biological target: T2, human VEGF-B; assay: solid phase binding ELISA
Protocol: as §1

human VEGF-C = biological target: T3, human VEGF-C; assay: solid phase binding ELISA
Protocol: as §1

human VEGF-D = biological target: T4, human VEGF-D; assay: solid phase binding ELISA
Protocol: as §1

VEGF = assay: cell-based or functional assay
[1] = biological target: T6, recombinant human VEGF165 (human, UniProt P15692-4 27-191); assay: hVEGF165/hVEGFR2-Fc competition ELISA
T6 construct: also called hVEGF165; rhVEGF165
Target sequence in this assay (P15692 other isoform, or with tags, fused parts or gaps limits assumed): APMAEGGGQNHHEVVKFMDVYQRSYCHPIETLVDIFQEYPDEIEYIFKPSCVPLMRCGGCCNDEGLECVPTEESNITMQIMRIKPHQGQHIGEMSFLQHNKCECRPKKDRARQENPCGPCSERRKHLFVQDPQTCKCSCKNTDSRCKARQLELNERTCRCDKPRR

[2] = biological target: T6, recombinant human VEGF165; assay: kd1; SPR Biacore T100, hVEGF165 on chip, Two State Reaction model
Protocol: (§2) Samples are injected for 2 min and allowed to dissociate up to 20 min at a flow rate of 45 μI/min. In between sample injections, the chip surface is regenerated with 100 mM HCl. HBS-EP+(Hepes buffer pH7.4+EDTA) is used as running buffer. Binding curves are fitted using a Two State Reaction model by Biacore T100 Evaluation Software v2.0.1.
(§3) ^{(a)}Heterogeneous binding curve resulting in no 1:1 fit, curves are fitted using a Two State Reaction model by Biacore T100 Evaluation Software v2.0.1

[3] = biological target: T5, recombinant human VEGF121; assay: binding ELISA, coated rhVEGF121
Protocol: Binding to recombinant human VEGF121 is assessed via a solid phase binding ELISA. Briefly, recombinant human VEGF121 (R&D Systems, Minneapolis, Minn., USA) is coated overnight at 4° C. at 1 μg/mL in a 96-well MaxiSorp plate (Nunc, Wiesbaden, Germany). Wells are blocked with a casein solution (1% in PBS).

[4] = biological target: T6, recombinant human VEGF165; assay: ka1; SPR Biacore T100, hVEGF165 on chip, Two State Reaction model
Protocol: as §2, §3
Target sequence in this assay (P15692 other isoform, or with tags, fused parts or gaps limits assumed): as above

[5] = biological target: T6, recombinant human VEGF165; assay: Biacore, periplasmic extract on hVEGF165 chip, two phase decay fit
Target sequence in this assay (P15692 other isoform, or with tags, fused parts or gaps limits assumed): as above

[6] = biological target: T6, recombinant human VEGF165; assay: AlphaScreen competition, 0.05 nM hVEGF165 and 0.05 nM hVEGFR1-Fc; blocked: hVEGFR1-Fc
Target sequence in this assay (P15692 other isoform, or with tags, fused parts or gaps limits assumed): as above

[7] = biological target: T6, recombinant human VEGF165; assay: ka1; SPR Biacore T100 on hVEGF165
Target sequence in this assay (P15692 other isoform, or with tags, fused parts or gaps limits assumed): as above

[8] = biological target: T6, recombinant human VEGF165; assay: AlphaScreen competition, 0.05 nM hVEGF165 and 0.05 nM hVEGFR1-Fc; blocked: hVEGFR1-Fc; remark: listed apart in the source
[9] = biological target: T6, recombinant human VEGF165; assay: as above; remark: listed apart in the source
Target sequence in this assay (P15692 other isoform, or with tags, fused parts or gaps limits assumed): as above

binding result (human PIGF)	binding result (human VEGF-B)	binding result (human VEGF-C)	binding result (human VEGF-D)	% inhibition, VEGF HUVEC proliferation assay (VEGF) [%]	IC50 (nM), VEGF HUVEC proliferation assay (VEGF) [nM]	% inhibition [1] [%]	IC50 [1] [nM]	koff [2] [s⁻¹]	EC50 [3] [nM]	kon [4] [M⁻¹ s⁻¹]	% fast [5] [%]	IC50 (read off the curve) [6] [nM]	kon [7] [M⁻¹ s⁻¹]	IC50 (read off the curve) [8] [nM]	IC50 (read off the curve) [9] [nM]	Binder
no binding (tested: 500 nM-32 pM)	no binding (tested: 500 nM-32 pM)	no binding (tested: 500 nM-32 pM)	no binding (tested: 500 nM-32 pM)	91	0.36	100	2.1	0.0086	0.51	210000	12	–	–	–	–	VEGFBII23B04 (VHH, also called VEGFBII23B4; VEGFBII23B04 (wt)) VHH: EVQLVESGGGLVQTGDSLRLSCEVSGRTFSSYSMGWFRQAQGKEREFVVAISKGGYKYDSVSLEGRFTISKDNAKNTVYLQINSLKPEDTAVYYCASSRAYGSSRLRLADTYEYWGQGTQVTVSS
–	–	–	–	–	–	–	–	–	–	–	–	~0.3	260000	~0.8	~0.8	VEGFBII038 (VHH, also called VEGFBII0038; VEGFBII00038) VHH: DVQLVESGGGLVQPGGSLRLSCAASGRTFSSYSMGWFRQAPGKEREFVVAISKGGYKYDAVSLEGRFTISRDNAKNTVYLQINSLRPEDTAVYYCASSRAYGSSRLRLADTYEYWGQGTLVTVSS
